Substitutions are numbered along the chain they refer to. Names and notes keep the numbering of the source.
Key:
FcgRIIa R = target: T1, FcgRIIa R (human, UniProt P12318 34-217); assay: SPR (Biacore), antibody captured on chip, FcgR extracellular domain as analyte
T1 construct: extracellular domain; also called FcγRIIa R; FcγRIIa type R; not shown: His tag attached to the C terminus
T1 sequence (looked up): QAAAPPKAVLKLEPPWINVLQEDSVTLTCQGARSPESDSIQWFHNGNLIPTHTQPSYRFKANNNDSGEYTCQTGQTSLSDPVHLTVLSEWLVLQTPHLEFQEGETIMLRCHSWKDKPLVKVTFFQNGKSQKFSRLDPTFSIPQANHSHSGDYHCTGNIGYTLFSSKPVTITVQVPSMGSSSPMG
Procedure: (§1) Analysis of interaction between obj ective antibody and the FcγR was carried out using Biacore T100 (GE Healthcare), Biacore T200, Biacore A100, and Biacore 4000. HBS-EP+ (GE Healthcare) was used as the running buffer, and the measurement temperature was set to 25° C. Chips produced by immobilizing the antigen peptide by the amine coupling method to a Series S sensor Chip CM5 (GE Healthcare), chips produced by allowing preliminarily biotinylated antigen peptides to interact with and immobilize onto a Series S Sensor Chip SA (certified) (GE Healthcare), chips produced by immobilizing Protein L (ACTIGEN, BioVision) to Series S Sencor Chip CM5 (GE Healthcare), or chips produced by immobilizing Protein A/G (Thermo Scientific) to Series S Sencor Chip CM5 (GE Healthcare) were used. Antibodies of interest were captured onto these chips, and allowed to interact to each FcγR diluted with running buffer. To regenerate and repeatedly use the chip, the antibodies captured onto the chip were washed off by reacting 10 mM glycine-HCl, pH 1.5.

FcgRIIIa V = target: T2, FcgRIIIa V (human, UniProt P08637 17-208); assay: as above
T2 construct: extracellular domain; also called FcγRIIIa V; not shown: His tag attached to the C terminus
T2 sequence (P08637 17-208 F176V limits assumed): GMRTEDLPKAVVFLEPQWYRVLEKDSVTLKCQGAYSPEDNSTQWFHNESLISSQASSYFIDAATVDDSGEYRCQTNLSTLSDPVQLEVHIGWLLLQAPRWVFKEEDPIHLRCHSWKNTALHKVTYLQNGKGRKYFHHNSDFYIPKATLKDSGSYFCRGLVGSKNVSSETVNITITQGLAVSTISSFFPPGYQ
Procedure: as §1

FcgRIIIa F = target: T3, FcgRIIIa F (human, UniProt P08637 17-208); assay: as above
T3 construct: extracellular domain; also called FcγRIIIa F; not shown: His tag attached to the C terminus
T3 sequence (P08637 17-208): as the sequence (P08637 17-208 F176V limits assumed) above, with V160F counted along it
Procedure: as §1

FcgRIIa H = target: T4, FcgRIIa H (human, UniProt P12318 34-217); assay: as above
T4 construct: extracellular domain; also called FcγRIIa H; FcγRIIa type H; not shown: His tag attached to the C terminus
T4 sequence (looked up): T1 sequence (looked up) with R134H
Procedure: as §1

FcγRIIb = target: T5, FcγRIIb (human, UniProt P31994 43-217); assay: SPR (Biacore), relative binding
T5 construct: extracellular domain; for crystallography expressed with Kifunesine and trimmed with Endo F1; also called FcgRIIb; FcgR2b; not shown: His tag attached to the C terminus
T5 sequence (looked up): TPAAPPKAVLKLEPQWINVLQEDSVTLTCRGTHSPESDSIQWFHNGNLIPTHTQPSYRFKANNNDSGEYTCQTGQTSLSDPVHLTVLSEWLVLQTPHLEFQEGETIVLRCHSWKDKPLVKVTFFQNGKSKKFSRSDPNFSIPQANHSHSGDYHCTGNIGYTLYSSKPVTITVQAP
From the text: The constructed expression vectors were each combined with GpH7-A5 and GpL16-k0 to express heterodimerized antibodies, or they were combined with GpL16-k0 alone but not with other H chains to express homodimerized antibodies. These antibodies were expressed and purified according to the method described in Reference Example 1. The resulting purified antibodies are the following: the heterodimerized antibodies GpH7-A5/GpH7-B12/GpL16-k0, GpH7-A5/GpH7-B13/GpL16-k0, GpH7-A5/GpH7-B14/GpL16-k0, and GpH7-A5/GpH7-B15/GpL16-k0; and homodimerized antibodies GpH7-B12/GpL16-k0, GpH7-B13/GpL16-k0, GpH7-B14/GpL16-k0, and GpH7-B15/GpL16-k0. The prepared antibodies were used to assess the binding activity to each FcγR by the method described in Reference Example 2.
(§2) Analysis of interaction between objective antibody and the FcγR was carried out using Biacore T100 (GE Healthcare). HBS-EP+ (GE Healthcare) was used as the running buffer, and the measurement temperature was set to 25° C. Chips produced by immobilizing the antigen peptide by the amine coupling method to a Series S Sencor Chip CM5 (GE Healthcare), or alternatively, chips produced by allowing preliminarily biotinylated antigen peptides to interact with and immobilize onto a Series S Sensor Chip SA (certified) (GE Healthcare) were used. Antibodies of interest were captured onto an antigen peptide-immobilized chip, and allowed to interact to each FcγR diluted with running buffer. To regenerate and repeatedly use the chip, the antibodies captured on the chip were washed off by reacting 10 mM glycine-HCl, pH 1.5.

[1] = target: T6, FcγRIIIa extracellular domain with C-terminal His tag (human, UniProt P08637 17-208); assay: SPR (Biacore), kinetic analysis, antibody captured, FcγRIIIa as analyte
T6 construct: extracellular domain; also called FcgRIIIa; 3a; not shown: His tag at the C terminus
T6 sequence (P08637 17-208): as the sequence (P08637 17-208 F176V limits assumed) above, with V160F counted along it
From the text: Then, the present inventors introduced I332E into only one H chain, and assessed whether the Tm is elevated as compared to when I332E is introduced into both H chains. Expression vectors inserted with GpH7-A44 (SEQ ID NO: 49) and GpH7-B80 (SEQ ID NO: 50) resulting from the introduction of I332E into GpH7-A5 and GpH7-B3, respectively, were constructed. They were combined with GpH7-B3, GpH7-A5, and GpL16-k0 to express and prepare the following antibodies according to the method described in Reference Example 1: the heterodimerized antibodies GpH7-A5/GpH7-B80/GpL16-k0 and GpH7-A44/GpH7-B3/GpL16-k0 in which only one of the H chains was introduced with I332E, and the homodimerized antibody GpH7-A44/GpH7-B80/GpL16-k0 in which both of the H chains were introduced with I332E. GpH7-A5/GpH7-B3/GpL16-k0 was prepared as a control. Each antibody was assessed for the FcγRIIIa-binding activity according to the method described in Reference Example 2. In addition, the antibodies were compared for the Tm of CH2 domain by thermal shift assay according to the method described in Reference Example 5 (Tables 28 and 29).
as §2
The FcγR-binding activity of each antibody was assessed primarily using as an indicator the FcγR-binding activity and dissociation constant for FcγR.

B1: H240-Kn067/H240-Hl136/L73-k0 (antibody, human IgG1, kappa)
heavy 1: QDQLVQSGAEVKKPGASVKVSCKASGFNIKDTYIQWVRQAPGQGLEWMGRIDPLRKQTKYREKFEGRVTITADTSTNTAYMELSSLRSEDTAVYYCVRSGREFDYWGQGTLVTVSSASTKGPSVFPLAPSSKSTSGGTAALGCLVKDYFPEPVTVSWNSGALTSGVHTFPAVLQSSGLYSLSSVVTVPSSSLGTQTYICNVNHKPSNTKVDKKVEPKSCDKTHTCPPCPAPEYYWGPSVFLFPPKPKDTLMISRTPEVTCVVVDVSDEDPEVKFNWYVDGVEVHNAKTKPREEQYNATYRVVSVLTVLHQDWLNGKEYKCKVSNKDLPAPIEKTISKAKGQPREPQVCTLPPSRDELTKNQVSLWCLVKGFYPSDIAVEWESNGQPENNYKTTPPVLDSDGSFFLYSKLTVDKSRWQQGNVFSCSVMHEALHNHYTQKSLSLSP
heavy 2: B1 heavy 1 with C348Y, D355C, W365S, L367A, Y406V
light: DIQMTQSPSSLSASVGDRVTITCRASQDIHKYIAWYQQKPGQAPRLLIQYTSTLQPGVPSRFSGSGSGTDYTFTISSLQPEDIATYYCLQYEQLRTFGGGTKVEIKRTVAAPSVFIFPPSDEQLKSGTASVVCLLNNFYPREAKVQWKVDNALQSGNSQESVTEQDSKDSTYSLSSTLTLSKADYEKHKVYACEVTHQGLSSPVTKSFNRGEC
notes: Anti-EREG IgG1 called homodimerized: both H chains (knob and hole) carry L234Y/L235Y/G236W/H268D/S298A/A327D; also called H240-Kn067/H240-HI136/L73-k0
Kd (FcgRIIa R): 950 nM | Kd (FcgRIIIa V): 340 nM | Kd (FcgRIIIa F): 960 nM | Kd (FcgRIIa H): 2100 nM

B2: H240-Kn133/H240-Hl068/L73-k0 (antibody, human IgG1, kappa)
heavy 1: B1 heavy 1 with Y233L, Y234L, W235G, D267H, D269E, A297S, K325D, D326A, A329K, K333E
heavy 2: QDQLVQSGAEVKKPGASVKVSCKASGFNIKDTYIQWVRQAPGQGLEWMGRIDPLRKQTKYREKFEGRVTITADTSTNTAYMELSSLRSEDTAVYYCVRSGREFDYWGQGTLVTVSSASTKGPSVFPLAPSSKSTSGGTAALGCLVKDYFPEPVTVSWNSGALTSGVHTFPAVLQSSGLYSLSSVVTVPSSSLGTQTYICNVNHKPSNTKVDKKVEPKSCDKTHTCPPCPAPELLGGPSVFLFPPKPKDTLMISRTPEVTCVVVDVSHEEPEVKFNWYVDGVEVHNAKTKPREEQYNSTYRVVSVLTVLHQDWLNGKEYKCKVSNDALPKPIEETISKAKGQPREPQVYTLPPSRCELTKNQVSLSCAVKGFYPSDIAVEWESNGQPENNYKTTPPVLDSDGSFFLVSKLTVDKSRWQQGNVFSCSVMHEALHNHYTQKSLSLSP
light: B1 light
notes: Anti-EREG IgG1 called homodimerized: both H chains carry D270E/K326D/A330K/K334E; also called H240-Kn133/H240-HI068/L73-k0
Kd (FcgRIIa R): 450 nM | Kd (FcgRIIIa V): 14 nM | Kd (FcgRIIIa F): 120 nM | Kd (FcgRIIa H): 160 nM

B3: GpH7-A43/GpL16-k0 (antibody, human IgG1, kappa)
heavy: QVQLVQSGAEVKKPGASVTVSCKASGYTFTDYEMHWIRQPPGEGLEWIGAIDPKTGDTAYSESFQDRVTLTADKSTSTAYMELSSLTSEDTAVYYCTRFYSYTYWGQGTLVTVSSASTKGPSVFPLAPSSKSTSGGTAALGCLVKDYFPEPVTVSWNSGALTSGVHTFPAVLQSSGLYSLSSVVTVPSSSLGTQTYICNVNHKPSNTKVDKKVEPKSCDKTHTCPPCPAPELLGGPSVFLFPPKPKDTLMISRTPEVTCVVVDVSHEDPEVKFNWYVDGVEVHNAKTKPREEQYNSTYRVVSVLTVLHQDWLNGKEYKCKVSNKADPAPIEKTISKAKGQPREPQVYTLPPSRKELTKNQVSLTCLVKGFYPSDIAVEWESNGQPENNYKTTPPVLDSDGSFFLYSKLTVDKSRWQQGNVFSCSVMHEALHNRYTQKSLSLSP
light: DIVMTQSPLSLPVTPGEPASISCQASESLVHSNRNTYLHWYLQKPGQSPQLLIYKVSNRFSGVPDRFSGSGSGTDFTLKISRVEAEDVGVYYCSQNTHVPPTFGQGTKVEIERTVAAPSVFIFPPSDEQLKSGTASVVCLLNNFYPREAKVQWKVDNALQSGNSQESVTEQDSKDSTYSLSSTLTLSKADYEKHKVYACEVTHQGLSSPVTKSFNRGEC
notes: L328D in both H chains
binding result (FcγRIIb): binds

B4: GpH7-A5/GpH7-B3/GpL16-k0 (antibody, human IgG1, kappa)
heavy 1: not shown
heavy 2: not shown
light: B3 light
notes: also called HeCon Ab; control heterodimerized antibody
KD ratio [1]: 1 fold (KD of GpH7-A5/GpH7-B3/GpL16-k0 divided by KD of the antibody) | Kd [1]: 1600 nM

B5: GpH7-A44/GpH7-B80/GpL16-k0 (antibody, human IgG1, kappa)
heavy 1: B3 heavy with D326L, I330E
heavy 2: not shown
light: B3 light
notes: Anti-glypican-3 IgG1 with I332E in both H chains
KD ratio [1]: 7.1 fold (KD of GpH7-A5/GpH7-B3/GpL16-k0 divided by KD of the antibody) | Kd [1]: 230 nM

B6: GpH7-A5/GpH7-B80/GpL16-k0 (antibody, human IgG1, kappa)
heavy 1: not shown
heavy 2: not shown
light: B3 light
notes: Heterodimerized anti-glypican-3 IgG1
KD ratio [1]: 3.4 fold (KD of GpH7-A5/GpH7-B3/GpL16-k0 divided by KD of the antibody) | Kd [1]: 470 nM

B7: GpH7-A44/GpH7-B3/GpL16-k0 (antibody, human IgG1, kappa)
heavy 1: B3 heavy with D326L, I330E
heavy 2: not shown
light: B3 light
notes: Heterodimerized anti-glypican-3 IgG1; I332E only in the GpH7-A5-derived chain (A44)
KD ratio [1]: 4.4 fold (KD of GpH7-A5/GpH7-B3/GpL16-k0 divided by KD of the antibody) | Kd [1]: 370 nM

Reference: patent publication US20180155451A1 (published 2018)
